According to US11400156B2, “Methods of preventing secondary infections” (Yeda Research and Development Co. Ltd., priority 2015, dated 2022):
Like-named read-outs stand apart in the source and are kept apart here.

Columns and labels:
[1] = system: influenza A/Puerto Rico/8/34 (A/PR/8/34, H1N1); assay type: in vivo, C57BL/6J mice
[2] = system: PR8 influenza virus followed by S. pneumoniae; assay type: in vivo, C57BL/6J mice
S. pneumoniae = assay type: in vivo, C57BL/6J mice
[3] = system: influenza A/Puerto Rico/8/34 (A/PR/8/34, H1N1); assay type: in vivo, C57BL/6J mice; remark: listed apart in the source
[4] = system: collagenolytic activity in lung section; parameters: species or system C57BL/6J mice; details: mouse, in vivo
[5] = system: influenza A/Puerto Rico/8/34 (A/PR/8/34, H1N1); assay type: in vivo, C57BL/6J mice; remark: listed apart in the source
MT1-MMP = MT1-MMP (Homo sapiens, UniProt P50281); details: cited from earlier work
[6] = influenza-infected mice, versus control treated
[7] = sub-lethal PR8 influenza, 74 hours post infection

With `CCOC(=O)C1=C[C@@H](OC(CC)CC)[C@H](NC(C)=O)[C@@H](N)C1` [Tamiflu, Oseltamivir phosphate, reference compound] as the molecule, how does the “reduction of viral burden in whole-lung homogenates (qPCR)” value ([1]; versus vehicle-treated mice) read?
Its value is 10-100 fold.

What about the “alveolar and bronchial structures / collateral damage in lung ECM (AirSEM)” value ([2]; mouse, in vivo) of the same molecule?
Its value is “ineffective in preventing collateral damage in the lung ECM”.

What about the “survival rates and clinical scores, preventive treatment (comparison in words)” value ([2]; mouse, in vivo) of the same molecule?
The value was “same survival rates and clinical scores as the group that received anti-MT1-MMP”.

What about the “survival, therapeutic treatment” value ([2]; mouse, in vivo) of the same molecule?
Its value is 20%.

What about the “bacteremia and dissemination of S. pneumoniae from lungs to systemic circulation and spleen” value (shortened to “bacteremia and dissemination”) (S. pneumoniae; mouse, in vivo) of the same molecule?
Its value is “developed sepsis”.

What about the “tissue integrity, ECM morphology and collagen structure (AirSEM)” value ([3]; mouse, in vivo) of the same molecule?
Its value is “same destructive lung tissue and ECM phenotypes were observed”.

B1: LEM 2/15: selective allosteric inhibitory antibody of MT1-MMP from LEM-2/15 hybridoma cells; Fab fragment given to mice at 3 mg/kg (antibody, V domains shown)
VL: LVIDVLMTQTPLSLPVGLGDQASISCRSSQSIVHSNGNTYLEWYLQKPGQSPKLLIYKVSNRFSGVPDRFSGSGSGTDFTLKISRVEAEDLGVYYCFQGSHAPYTFGGGTKLEIKR
VH: EVKLVESGGGLVKPGGSLKLSCAASGFIFSNYAMSWVRQTPEKRLEWVATISGGGRNIYSLDSVKGRFTFFRDNARNTLYLQMSSLRSEDTAMYFCSRENYGSSFTYWGQGTLVTVS
modifications: Fab fragment; LEM-2/15.8 antibody VH amino acid sequence; LEM-2/15.8 antibody VL amino acid sequence
With B1 as the molecule, how does the “proteolysis by functional in situ zymography” value [4] read?
Its value is “significant attenuation of proteolysis”.

What about the “effect on viral burden, early phases of infection” value ([1]; 24 hours post infection) of the same molecule?
The value was “minimal effect”.

And the “effect on viral burden, later stages” value ([1]; later stages of infection)?
Its value is “no effect was discernible”.

And the “recruitment of macrophages and neutrophils to infected lungs (FACS)” value ([5]; 74 hours post-infection, versus control antibody)?
The value was “no detectable differences”.

What about the “IL-1β level in BALF” value [5, 6] of the same molecule?
The value was “strongly induced in influenza-infected mice regardless of MT1-MMP activity”.

And the “TNF-α level in BALF” value [5, 6]?
Its value is “strongly induced in influenza-infected mice regardless of MT1-MMP activity”.

And the “survival rates and clinical scores, preventive treatment (comparison in words)” value ([2]; co-infection, treatment one day before infection (-1))?
The value was “equally effective in preventing co-infection induced mortality”.

And the “survival, therapeutic treatment” value ([2]; co-infection, treatment one day post infection (+1))?
The value was 70%.

And the “concentration at which the inhibitory antibody of MT1-MMP is effective” value (MT1-MMP; inhibits collagenase activity of MT1-MMP expressed on the cell surface)?
The value was “nano-molar concentrations”.

And the “interference with proMMP-2 activation and enzyme dimerization on the cell surface” value (MT1-MMP; selectivity of inhibition)?
The value was “without significantly interfering”.

What about the “bacteremia and dissemination” value (S. pneumoniae; co-infected mice, 2 days post bacterial infection, listed as MT1-MMP inhibitory antibody) of the same molecule?
The value was “reduced spread of bacteria”.

And the “bacteremia and dissemination” value (S. pneumoniae; co-infected mice, 2 days post bacterial infection, listed as anti-MT1-MMP inhibitor)?
Its value is “did not develop systemic bacterial dissemination”.

What about the “collagen type I fibers (two-photon second harmonic generation, 3D analysis)” value [3, 7] of the same molecule?
The value was “more abundant”.

And the “laminin degradation in infected lungs (immunostaining)” value [3, 7]?
Its value is “protected laminin”.

What about the “tissue integrity, ECM morphology and collagen structure (AirSEM)” value [3, 7] of the same molecule?
The value was “protected tissue integrity”.
